Substrate: CO[C@H]1O[C@H](COS(=O)(=O)O)[C@@H](O[C@@H]2O[C@@H](C(=O)O)[C@@H](O[C@H]3O[C@H](COS(=O)(=O)O)[C@@H](O[C@@H]4O[C@H](C(=O)O)[C@@H](O[C@H]5O[C@H](COS(=O)(=O)O)[C@@H](O)[C@H](O)[C@H]5NS(=O)(=O)O)[C@H](O)[C@H]4O)[C@H](OS(=O)(=O)O)[C@H]3NS(=O)(=O)O)[C@H](O)[C@H]2OS(=O)(=O)O)[C@H](O)[C@H]1NS(=O)(=O)O
Assay: purified protein, by the assay type
Settings: other: substrate of heparanase; pH 5.0
Procedure: In the presence of an inhibitor the catalytic activity of heparanase is reduced, and the amount of disaccharide produced and the optical density of the solution are both decreased. The percent inhibition and IC50 of the inhibitor are determined from measurement of the optical density (OD) over a range of inhibitor concentrations.
Assays were carried out in 40 mM sodium acetate buffer, pH 5.0, as follows. […] A blue colour was developed by incubation of the plates at 60° C. for 60 min. […] The IC50 value for each compound was evaluated and converted into a Ki (inhibition constant) using the expression

B1: recombinant human heparanase (Homo sapiens) (protein)
chain 1: KKFKNSTYSRSSVDVLYTFANCSGLDLIFGLNALLRTADLQWNSSNAQLLLDYCSSKGYNISWELGNEPNSFLKKADIFINGSQLGEDFIQLHKLLRKSTFKNAKLYGPDVGQPRRKTAKMLKSFLKAGGEVIDSVTWHHYYLNGRTATKEDFLNPDVLDIFISSVQKVFQVVESTRPGKKVWLGETSSAYGGGAPLLSDTFAAGFMWLDKLGLSARMGIEVVMRQVFFGAGNYHLVDENFDPLPDYWLSLLFKKLVGTKVLMASVQGSKRRKLRVYLHCTNTDNPRYKEGDLTLYAINLHNVTKYLRLPYPFSNKQVDKYLLRPLGPHGLLSKSVQLNGLTLKMVDDQTLPPLMEKPLRPGSSLGLPAFSYSFFVIRNAKVAACI
chain 2: QDVVDLDFFTQEPLHLVSPSFLSVTIDANLATDPRFLILLGSPKLRTLARGLSPAYLRFGGTKTDFLIFDPKKE
- Km: 33 ± 6 µM
